Measurements from publication PMC4422613, “The Inner Nuclear Membrane Protein Nemp1 Is a New Type of RanGTP-Binding Protein in Eukaryotes” (PLoS ONE, 2015).

B1: GST-Mm_Bt (domain or fragment)
chain: PVPPRLLTEEEYRIQGEVETQKALQELREFCNSPECSAWKTISRIQSPKRFADFVEGSFHLTPNEVSVHEQEYGLGSIFTQDEELSSEEEGSEYPTFTQNNFLT
B2: recombinant Mm_Bt (domain or fragment)
chain: B1 chain
notes: source: recombinant

Key:
[1] = molecular target: recombinant Myc-Mm_RanQ69L(GTP) (Mus musculus, UniProt P62827 1-216, Q69L); assay: pull-down; purified GST-Mm_Bt (2.8 μg) on glutathione-Sepharose beads incubated with purified Myc-RanQ69L (5 μg) loaded with 2 mM GTP, binding buffer, 4 °C, 2 h; settings: both partners purified
GST-Mm_RanQ69L = GST-Mm_RanQ69L (Mus musculus, UniProt P62827 1-216, Q69L); assay: pull-down; competition: 0.1, 1, 10 μg recombinant Mm_Bt added to 10 μg GST-RanQ69L on glutathione beads in embryo lysate holding FLAG-importin β; read-out is the importin β pulled down; settings: both partners purified

| Binder | binding result [1] | binding result (GST-Mm_RanQ69L) |
| --- | --- | --- |
| B1 | binds | – |
| B2 | – | binds |
